Source: publication doi:10.1101/2021.11.25.470006 (bioRxiv, 2021)

Assays:
Assay in all cases: cryo-EM structure
[1] = biological target: T1, Smc5 (Walker B mutant E1015Q) (S. cerevisiae, UniProt Q08204 1-1093, E1015Q, BS3-crosslinked within the holo-complex)
T1 sequence: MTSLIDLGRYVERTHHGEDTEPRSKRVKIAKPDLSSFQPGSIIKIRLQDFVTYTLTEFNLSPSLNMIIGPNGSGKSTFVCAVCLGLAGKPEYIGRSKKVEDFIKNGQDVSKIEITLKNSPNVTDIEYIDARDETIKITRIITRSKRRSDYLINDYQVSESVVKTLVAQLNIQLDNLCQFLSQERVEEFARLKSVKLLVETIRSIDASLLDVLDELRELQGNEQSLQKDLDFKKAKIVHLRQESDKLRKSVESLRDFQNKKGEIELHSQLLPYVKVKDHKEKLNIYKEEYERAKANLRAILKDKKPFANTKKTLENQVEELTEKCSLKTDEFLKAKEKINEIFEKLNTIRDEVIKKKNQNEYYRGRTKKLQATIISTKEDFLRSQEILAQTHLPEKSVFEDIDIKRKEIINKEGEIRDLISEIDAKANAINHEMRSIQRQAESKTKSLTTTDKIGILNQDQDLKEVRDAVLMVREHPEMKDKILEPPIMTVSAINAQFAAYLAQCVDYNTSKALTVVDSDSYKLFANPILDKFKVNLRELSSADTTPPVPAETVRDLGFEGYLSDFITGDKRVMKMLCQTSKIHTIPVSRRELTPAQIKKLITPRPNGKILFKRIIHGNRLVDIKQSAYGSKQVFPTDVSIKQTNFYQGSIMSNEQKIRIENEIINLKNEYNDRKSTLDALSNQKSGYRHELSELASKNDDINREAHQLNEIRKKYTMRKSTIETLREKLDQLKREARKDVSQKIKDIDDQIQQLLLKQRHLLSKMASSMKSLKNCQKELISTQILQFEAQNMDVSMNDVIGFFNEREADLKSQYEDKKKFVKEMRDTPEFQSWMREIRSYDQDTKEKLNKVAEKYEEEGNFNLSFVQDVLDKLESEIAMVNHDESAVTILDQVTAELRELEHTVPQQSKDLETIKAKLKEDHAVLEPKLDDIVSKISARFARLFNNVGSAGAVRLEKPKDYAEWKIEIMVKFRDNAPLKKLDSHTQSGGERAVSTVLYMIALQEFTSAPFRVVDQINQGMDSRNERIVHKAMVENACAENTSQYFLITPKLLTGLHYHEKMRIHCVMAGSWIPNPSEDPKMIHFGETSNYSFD

Nse1 = biological target: T2, Nse1 (S. cerevisiae, UniProt Q07913 1-336, BS3-crosslinked within the holo-complex)
T2 sequence: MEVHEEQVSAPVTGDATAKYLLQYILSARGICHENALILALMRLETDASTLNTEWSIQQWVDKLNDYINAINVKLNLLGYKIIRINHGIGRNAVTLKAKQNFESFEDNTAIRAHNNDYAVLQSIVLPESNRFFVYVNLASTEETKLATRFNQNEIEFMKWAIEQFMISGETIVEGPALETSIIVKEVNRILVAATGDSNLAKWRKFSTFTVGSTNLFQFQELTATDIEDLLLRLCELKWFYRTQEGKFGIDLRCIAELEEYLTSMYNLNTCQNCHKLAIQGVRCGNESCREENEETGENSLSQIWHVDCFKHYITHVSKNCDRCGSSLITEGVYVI

Nse4 (HALO-tagged) = biological target: T3, Nse4 (HALO-tagged) (S. cerevisiae, UniProt P43124 1-402, BS3-crosslinked within the holo-complex)
T3 sequence: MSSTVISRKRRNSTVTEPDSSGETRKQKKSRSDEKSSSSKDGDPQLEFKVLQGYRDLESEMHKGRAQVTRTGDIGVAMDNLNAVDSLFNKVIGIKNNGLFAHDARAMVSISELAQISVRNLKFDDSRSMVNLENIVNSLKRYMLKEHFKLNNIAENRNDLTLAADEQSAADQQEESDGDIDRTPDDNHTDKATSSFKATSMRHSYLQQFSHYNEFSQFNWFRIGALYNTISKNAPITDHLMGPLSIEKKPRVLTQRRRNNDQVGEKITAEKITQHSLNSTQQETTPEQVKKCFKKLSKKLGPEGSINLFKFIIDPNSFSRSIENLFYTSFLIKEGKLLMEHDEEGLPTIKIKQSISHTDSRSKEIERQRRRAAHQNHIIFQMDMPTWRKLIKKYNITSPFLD

- binding result [1]: binds
- binding result (Nse1): binds
- binding result (Nse4 (HALO-tagged)): binds
B1: Nse3 (natural protein, S. cerevisiae)
chain: MSSIDNDSDVDLTEDLAVAKIVKENPVARKMVRYILSRGESQNSIITRNKLQSVIHEAAREENIAKPSFSKMFMDINAILYNVYGFELQGLPSKNNMNAGGNGSNSNTNKSMPEPLGHRAQKFILLNNVPHSKNFDDFKILQSAHTYEELIVTGEYIGDDIASGTSNTLESKLSTDRDLVYKGVLSVILCIVFFSKNNILHQELIKFLETFGIPSDGSKIAILNITIEDLIKSLEKREYIVRLEEKSDTDGEVISYRIGRRTQAELGLESLEKLVQEIMGLEKEQTKSLHDDIIKSIGDSYSI
modifications: BS3-crosslinked within the holo-complex
